We go through 9 molecules from patent US20180066015A1, “INHIBITORS OF GROWTH FACTOR ACTIVATION ENZYMES” (Washington University, published 2018).

The target of assay [1] is Hepatocyte Growth Factor Activator (HGFA) serine protease domain, N-terminal His-tag, recombinant (Homo sapiens (Human)) (UniProt Q04756).
Assay [2] has as its target Recombinant human hepsin (4776-SE-010, R&D Systems), activated (human) (UniProt P05981).
The target in assay [3] is T1, matriptase (Charles Craik, UCSF), recombinant (Homo sapiens (Human)) (UniProt Q9Y5Y6).
T1 sequence: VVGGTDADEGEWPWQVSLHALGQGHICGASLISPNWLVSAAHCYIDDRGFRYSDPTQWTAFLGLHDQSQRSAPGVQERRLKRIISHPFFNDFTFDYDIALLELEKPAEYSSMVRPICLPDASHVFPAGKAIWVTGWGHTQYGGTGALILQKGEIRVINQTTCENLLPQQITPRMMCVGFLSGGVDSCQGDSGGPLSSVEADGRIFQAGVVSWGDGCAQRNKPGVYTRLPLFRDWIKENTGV

Assay [4] addresses Hepatocyte Growth Factor Activator (HGFA) serine protease domain, N-terminal His-tag, recombinant (Homo sapiens (Human)) (UniProt Q04756). The assay can be described thus: fluorogenic inhibition assay.
Assay [5] deals with T2, matriptase (Charles Craik, UCSF), recombinant (Homo sapiens (Human), UniProt Q9Y5Y6).
T2 sequence: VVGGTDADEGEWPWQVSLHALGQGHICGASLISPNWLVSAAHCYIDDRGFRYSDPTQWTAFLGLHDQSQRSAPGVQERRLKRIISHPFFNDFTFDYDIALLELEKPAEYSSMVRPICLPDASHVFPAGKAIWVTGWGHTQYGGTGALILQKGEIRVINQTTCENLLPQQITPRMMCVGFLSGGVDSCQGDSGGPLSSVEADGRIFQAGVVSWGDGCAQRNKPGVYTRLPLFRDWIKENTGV
Briefly: fluorogenic inhibition assay. The protocol: (§1) Inhibitors (11-pt serial dilutions, 0-20 μM final concentration in reaction) were serially diluted in DMSO (2% DMSO final concentration) and then mixed with either recombinant serine protease domain of HGFA [Z. Han, P. K. Harris, D. E. Jones, R. Chugani, T. Kim, M. Agarwal, W. Shen, S. A. Wildman, J. W. Janetka, Acs Med Chem Lett 2014, 5, 1219-1224], matriptase (Charles Craik, UCSF) or hepsin* (#4776-SE-010, R&D Systems, Minneapolis, Minn.) in black 384 well plates (Corning #3575. Corning, N.Y.). […] The final substrate concentrations for all assays were at the Kₘ for the respective enzymes. Changes in fluorescence (excitation at 380 nm and emission at 460 nm) were measured at room temperature over time in a Biotek Synergy 2 plate reader (Winnoski, Vt.). Using GraphPad Prism version 6.04 software program, (GraphPad Software, San Diego, Calif., www.graphpad.com), a four parameter curve fit was used to determine the inhibitor IC₅₀s from a plot of the mean reaction velocity versus the inhibitor concentration. The IC₅₀ values represent the average of three separate experimental determinations.

Assay [6] addresses Recombinant human hepsin (4776-SE-010, R&D Systems), activated (human, UniProt P05981). The assay can be described thus: fluorogenic inhibition assay. The procedure:
as §1

“And” between values parts separate entries of the source, which are not always exact repeats. Equal entries are not always repeated. Primed or numbered codes have the meaning given here. *: point of attachment. ketothiazole = C-terminal ketothiazole (kt), c1csc(*)n1; kt = C-terminal ketothiazole, c1csc(*)n1; kt″ = ketothiazole, c1csc(*)n1

B1: Ac-WQLR(SEQ ID NO: 3)-kt (peptide)
peptide: Ac-WQLR-kt
SMILES: CC(=O)N[C@@H](Cc1c[nH]c2ccccc12)C(=O)N[C@@H](CCC(N)=O)C(=O)N[C@@H](CC(C)C)C(=O)N[C@@H](CCCNC(=N)N)C(=O)c1nccs1
What is called Ki is the equilibrium dissociation constant of an inhibitor or competing ligand from its target. With B1, the IC50 of enzyme inhibition was determined as 471 nM in assay [1], 1 nM in assay [2] and 49 nM in assay [3]. The inhibition constant Ki in assay [4] was 65 nM; in assay [5] it was 32.4 nM; in assay [6], 0.21 nM.

B2: Ac-TKLR(SEQ ID NO: 16)-kt (peptide)
peptide: Ac-TKLR-kt
SMILES: CC(=O)N[C@H](C(=O)N[C@@H](CCCCN)C(=O)N[C@@H](CC(C)C)C(=O)N[C@@H](CCCNC(=N)N)C(=O)c1nccs1)[C@@H](C)O
For the molecule B2, in assay [1], the IC50 of enzyme inhibition stood at 567 nM. Moreover, the results for the inhibition constant (Ki) in assay [4], in assay [5] and in assay [6] were 103 nM, 8.7 nM and 0.61 nM, respectively.

B3: Ac-KHLR(SEQ ID NO: 2)-kt (peptide)
peptide: Ac-KHLR-{kt″}
SMILES: CC(=O)N[C@@H](CCCCN)C(=O)N[C@@H](Cc1c[nH]cn1)C(=O)N[C@@H](CC(C)C)C(=O)N[C@@H](CCCNC(=N)N)C(=O)c1nccs1
As to B3, the IC50 of enzyme inhibition in assay [1] amounted to 650 nM. In addition, the Ki in assay [4] was found to be 96 nM; in assay [5] it was 22.3 nM; in assay [6] it was 0.41 nM.

B4: Ac-RKLR(SEQ ID NO: 18)-kt (peptide)
peptide: Ac-RKLR-kt
SMILES: CC(=O)N[C@@H](CCCNC(=N)N)C(=O)N[C@@H](CCCCN)C(=O)N[C@@H](CC(C)C)C(=O)N[C@@H](CCCNC(=N)N)C(=O)c1nccs1
As to B4, the IC50 of enzyme inhibition in assay [1] was 370 nM. Further, the Ki in assay [4] is 17 nM; in assay [5], 0.83 nM; in assay [6], 0.47 nM.

B5: Ac-NKLR(SEQ ID NO: 14)-kt (peptide)
peptide: Ac-NKLR-kt
SMILES: CC(=O)N[C@@H](CC(N)=O)C(=O)N[C@@H](CCCCN)C(=O)N[C@@H](CC(C)C)C(=O)N[C@@H](CCCNC(=N)N)C(=O)c1nccs1
As to B5, the IC50 of enzyme inhibition in assay [1] is 397 nM and 400 nM. The Ki in assay [4] was 79 nM; in assay [5] it was 12 nM and 12.4 nM; in assay [6], 1.4 nM and 1.41 nM.

B6: Leupeptin (Ac-LLR-H) (peptide)
peptide: LLR
modifications: N-terminal acetyl; C-terminus printed as -H
B6: the IC50 of enzyme inhibition in assay [1] was 535 nM; in assay [2] it was 256 nM; in assay [3], 1150 nM. The inhibitory constant (Ki) came out at 188 nM in assay [4], 696 nM in assay [5] and 61 nM in assay [6].

B7: Ac-SQLR(SEQ ID NO: 7)-kt (peptide)
peptide: Ac-SQLR-kt
SMILES: CC(=O)N[C@@H](CO)C(=O)N[C@@H](CCC(N)=O)C(=O)N[C@@H](CC(C)C)C(=O)N[C@@H](CCCNC(=N)N)C(=O)c1nccs1
With B7, the IC50 of enzyme inhibition in assay [1] is 180 nM. Further, the values for the inhibitory constant (Ki) in assay [4], in assay [5] and in assay [6] were 182 nM, 9.2 nM and 0.34 nM, respectively.

B8: Ac-KFLR(SEQ ID NO: 5)-kt (peptide)
peptide: Ac-KFLR-ketothiazole
SMILES: CC(=O)N[C@@H](CCCCN)C(=O)N[C@@H](Cc1ccccc1)C(=O)N[C@@H](CC(C)C)C(=O)N[C@@H](CCCNC(=N)N)C(=O)c1nccs1
In the case of B8, the values for the IC50 of enzyme inhibition in assay [1], in assay [2] and in assay [3] were 330 nM, 22 nM and 35 nM, respectively. For the same molecule, in assay [4], the inhibitory constant (Ki) worked out at 80 nM.

B9: Ac-LLR-kt (peptide)
peptide: Ac-Leu-Leu-Arg-kt
As to B9, the IC50 of enzyme inhibition in assay [1] was 1480 nM. For the same molecule, the inhibition constant Ki is 253 nM in assay [4] and 2.29 nM in assay [6].
